Source: US20140017242A1, “ANTI-BRADYKININ B2 RECEPTOR (BKB2R) MONOCLONAL ANTIBODY” (Diamedica, Inc., priority 2010, published 2014)

Assays:
[1] = molecular target: T1, human BKB2R-derived epitope peptide, SE ID NO:73 (Homo sapiens, UniProt P30411); assay: ForteBio Octet binding kinetics to the BKB2R epitope peptide
T1 construct: purchased Biosyn, Lewisville, Tex
Procedure, shortened: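 Antibodies were titrated kinetically on a ForteBio Octet label-free biolayer interferometry platform against the human BKB2R epitope peptide (SEQ ID NO:73), compared with the parent mouse monoclonal. Streptavidin biosensors coated with biotinylated peptide at 50 μg/ml were equilibrated in kinetic buffer, then underwent 500 s association in antibody dilutions and 500 s dissociation in buffer.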

PC-3 = assay: MTT Cell Proliferation Assay, PC-3; format: cell-based, human; conditions: 120 hours of exposure
From the text: This Example describes characterization of the cytotoxic activity of herein described anti-BKB2R monoclonal antibodies against a panel of cancer cell lines. BxPC-3 is a human adenocarcinoma cell line originally isolated from the pancreas (pancreatic cancer) (ATCC # CRL-1687; Tan et al., Cancer Invest. 4: 15-23, 1986. PubMed: 3754176). MV-4-11 is a human biphenotypic B myelomonocytic leukemia (mixed-lineage leukemia, MLL-AF4) cell line originally isolated from the peripheral blood (ATCC # CRL-959; Lange et al., Blood 70: 192-199, 1987. PubMed: 3496132). Hep G2 is a human hepatocellular carcinoma cell line isolated from the liver (liver cancer) (ATCC # HB-8065; Aden et al., Nature 282: 615-616, 1979. PubMed: 233137). RS4;11 is a human acute lymphoblastic leukemia (mixed-lineage leukemia, MLL-AF4) cell line isolated from the bone marrow (ATTC # CRL-1873) Stong et al., Blood 65: 21-31, 1985. PubMed: 3917311). HT-29 is a human colorectal adenocarcinoma (ATTC # HTB-38) cell line isolated from the colon (colon cancer). Fogh et al., J. Natl. Cancer Inst. 58: 209-214, 1977. PubMed: 833871). NUGC-4 is a human stomach carcinoma isolated from the stomach paragastiric lymph node (JCRB # JCRB0834; Akiyama et al., Jpn. J. Surg., 18: 438-446, 1988). […]
The anti-proliferative activity of test compounds against the indicated cell lines was evaluated in vitro using the ATCC's MTT Cell Proliferation Assay (Catalog No. 30-1010K). After the 120 hour incubation with drug (e.g., anti-BKB2R mAb or cisplatin), cell proliferation was measured by addition of MTT reagent to each well and incubation for an additional 4 hrs. […] Optical absorbance (570 nm) of the test wells was measured and then quantitated relative to control wells that received no drug. Results were expressed as percent inhibition versus compound concentration and graphed, as shown in FIGS. 19-25, for cell lines BxPC-3, MV-4;11, HepG2, RS-4;11, HT-29, NUGC-4, and PC-3, respectively.

B1: 5F12G1: murine monoclonal anti-BKB2R antibody (IgG2b,κ), VH comprising SEQ ID NO:1, VL comprising SEQ ID NO:2 (antibody, listed as Mus musculus, V domains shown)
VH: EVKLEESGGGLVQPGGSMKLSCVVSGFTFSDYWMSWVRHSPEMGLEWVAEIRLKSDNYATHYAESVKGRFTISRDDSKSRLYLQINSLRGEDTGIYYCTRDYYAMEYWGQGTSVTVSS
VL: DVVMTQTPLSLPVSLGDQASISCRSSQTIVHSNGKTYLEWYLQKPGQSPKLLIYKVSNRFSGVPDRFSGSGSGTEFTLKISRVETEDLGVYYCFQASHVPYTFGGGTKLEIK
Max Response ([1]; Conc. 833 nM): 0.0265 | kdis ([1]; Conc. 833 nM): 0.00109 s⁻¹ | kon ([1]; Conc. 833 nM): 2350 M⁻¹ s⁻¹ | Max Response ([1]; Conc. 1000 nM): 0.0385 | kdis ([1]; Conc. 1000 nM): 0.00109 s⁻¹ | kon ([1]; Conc. 1000 nM): 2350 M⁻¹ s⁻¹ | Max Response ([1]; Conc. 1667 nM): 0.0544 | kdis ([1]; Conc. 1667 nM): 0.00109 s⁻¹ | kon ([1]; Conc. 1667 nM): 2350 M⁻¹ s⁻¹ | Max Response ([1]; Conc. 3333 nM): 0.0757 | kdis ([1]; Conc. 3333 nM): 0.00109 s⁻¹ | kon ([1]; Conc. 3333 nM): 2350 M⁻¹ s⁻¹ | EC 50 Values (ng/ml) PC-3 (PC-3): 4200 ng/mL
